Laboratory results published in patent publication US20060035214, “Screening methods for identifying inhibitors of herpesviral replication” (IRM LLC, a Delaware Limited Liability Company, published 2006).

T1: SATB1 (UniProt Q01826 Q01826:1-763)
T1 sequence: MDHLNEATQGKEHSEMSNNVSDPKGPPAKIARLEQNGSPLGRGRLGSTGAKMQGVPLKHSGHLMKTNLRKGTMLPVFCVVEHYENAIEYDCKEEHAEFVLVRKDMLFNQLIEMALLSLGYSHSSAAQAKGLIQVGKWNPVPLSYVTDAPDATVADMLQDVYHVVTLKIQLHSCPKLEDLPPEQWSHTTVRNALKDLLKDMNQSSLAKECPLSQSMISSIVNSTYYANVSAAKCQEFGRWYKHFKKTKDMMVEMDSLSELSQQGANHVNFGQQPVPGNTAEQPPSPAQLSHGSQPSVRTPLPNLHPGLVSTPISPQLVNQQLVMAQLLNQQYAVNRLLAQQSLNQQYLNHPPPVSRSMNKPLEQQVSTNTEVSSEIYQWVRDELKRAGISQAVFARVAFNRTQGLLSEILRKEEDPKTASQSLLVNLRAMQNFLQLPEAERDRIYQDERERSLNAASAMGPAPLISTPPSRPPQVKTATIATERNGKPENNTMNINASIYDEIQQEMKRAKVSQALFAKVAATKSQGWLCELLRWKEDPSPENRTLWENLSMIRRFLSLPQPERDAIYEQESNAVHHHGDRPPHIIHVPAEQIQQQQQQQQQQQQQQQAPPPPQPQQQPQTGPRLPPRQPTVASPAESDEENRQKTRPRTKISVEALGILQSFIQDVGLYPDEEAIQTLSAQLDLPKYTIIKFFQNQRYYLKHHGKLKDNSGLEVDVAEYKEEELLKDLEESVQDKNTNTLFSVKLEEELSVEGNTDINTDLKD

B1: CMV-593 to -549 (dsDNA)
DNA 1: GGCATTGATTATTGACTAGTTATTAATAGTAATCAATTACGGGGTCATTAGTTCA
DNA 2: TGAACTAATGACCCCGTAATTGATTACTATTAATAACTAGTCAATAATCAATGCC
B2: CMV-639 to -594 (dsDNA)
DNA 1: TATATGTACATTTATATTGGCTCATGTCCAATATGACCGCCATGTTGGCATTGATT
DNA 2: AATCAATGCCAACATGGCGGTCATATTGGACATGAGCCAATATAAATGTACATATA
B3: CMV-687 to -640 (dsDNA)
DNA 1: TAAATCAATATTGGCTATTGGCCATTGCATACGTTGTATCTATATCATAATATGTACA
DNA 2: TGTACATATTATGATATAGATACAACGTATGCAATGGCCAATAGCCAATATTGATTTA

What was measured:
[1] = biological target: T2, PDX1 (UniProt P52945 P52945:1-283); experiment: EMSA; positive control; conditions: tags: pCITE-PDX1, TNT reticulocyte lysate; label: radiolabel
[2] = biological target: CDP (CUX1) (UniProt P39880 P39880:1-1505); experiment: EMSA; conditions: tags: pCITE-CDP, TNT reticulocyte lysate; label: radiolabel
[3] = biological target: T2, PDX1; experiment: EMSA; conditions: tags: pCITE-PDX1, TNT reticulocyte lysate; label: radiolabel
[4] = biological target: T1, SATB1; experiment: EMSA; conditions: tags: pCITE-SATB1, TNT reticulocyte lysate; label: radiolabel

CDP (CUX1), sequence (P39880 whole entry, one chain of several): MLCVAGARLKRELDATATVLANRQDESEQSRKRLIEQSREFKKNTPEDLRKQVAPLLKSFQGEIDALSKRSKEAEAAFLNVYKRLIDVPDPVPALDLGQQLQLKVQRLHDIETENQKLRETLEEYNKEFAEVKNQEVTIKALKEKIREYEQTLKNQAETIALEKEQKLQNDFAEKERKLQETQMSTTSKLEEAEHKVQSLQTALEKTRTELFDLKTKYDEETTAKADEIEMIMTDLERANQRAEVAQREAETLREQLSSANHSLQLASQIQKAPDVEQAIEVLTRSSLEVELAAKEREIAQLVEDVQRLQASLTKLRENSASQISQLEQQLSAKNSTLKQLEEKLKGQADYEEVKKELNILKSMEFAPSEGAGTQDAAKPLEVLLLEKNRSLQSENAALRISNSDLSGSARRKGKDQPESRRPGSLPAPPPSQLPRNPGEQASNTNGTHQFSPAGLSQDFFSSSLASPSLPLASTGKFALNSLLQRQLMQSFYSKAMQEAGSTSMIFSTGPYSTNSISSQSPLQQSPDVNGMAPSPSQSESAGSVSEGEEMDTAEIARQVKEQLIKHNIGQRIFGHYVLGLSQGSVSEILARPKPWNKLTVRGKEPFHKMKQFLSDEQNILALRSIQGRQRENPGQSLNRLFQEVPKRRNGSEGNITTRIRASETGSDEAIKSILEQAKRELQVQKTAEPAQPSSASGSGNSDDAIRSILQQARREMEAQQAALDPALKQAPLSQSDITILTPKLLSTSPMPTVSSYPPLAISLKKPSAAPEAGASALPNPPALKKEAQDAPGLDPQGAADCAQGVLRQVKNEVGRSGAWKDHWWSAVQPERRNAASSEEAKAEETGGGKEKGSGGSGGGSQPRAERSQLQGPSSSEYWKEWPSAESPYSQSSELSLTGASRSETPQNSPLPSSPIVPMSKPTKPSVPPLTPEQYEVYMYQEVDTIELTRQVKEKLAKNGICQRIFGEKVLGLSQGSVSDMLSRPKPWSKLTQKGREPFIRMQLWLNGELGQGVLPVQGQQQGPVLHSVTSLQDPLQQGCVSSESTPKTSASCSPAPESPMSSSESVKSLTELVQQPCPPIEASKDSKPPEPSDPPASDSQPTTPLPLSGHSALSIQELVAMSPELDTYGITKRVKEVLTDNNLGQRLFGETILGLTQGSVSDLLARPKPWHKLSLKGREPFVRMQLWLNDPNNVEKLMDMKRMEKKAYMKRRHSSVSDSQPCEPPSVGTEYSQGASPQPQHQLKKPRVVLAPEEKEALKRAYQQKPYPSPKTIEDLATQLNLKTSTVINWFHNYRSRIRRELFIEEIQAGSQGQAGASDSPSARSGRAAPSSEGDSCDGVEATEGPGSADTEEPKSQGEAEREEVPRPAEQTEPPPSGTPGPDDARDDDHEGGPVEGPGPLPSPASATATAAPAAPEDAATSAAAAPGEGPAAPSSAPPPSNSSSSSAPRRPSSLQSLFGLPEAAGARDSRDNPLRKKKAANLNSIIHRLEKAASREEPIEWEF
T2 sequence (P52945 whole entry, one chain of several): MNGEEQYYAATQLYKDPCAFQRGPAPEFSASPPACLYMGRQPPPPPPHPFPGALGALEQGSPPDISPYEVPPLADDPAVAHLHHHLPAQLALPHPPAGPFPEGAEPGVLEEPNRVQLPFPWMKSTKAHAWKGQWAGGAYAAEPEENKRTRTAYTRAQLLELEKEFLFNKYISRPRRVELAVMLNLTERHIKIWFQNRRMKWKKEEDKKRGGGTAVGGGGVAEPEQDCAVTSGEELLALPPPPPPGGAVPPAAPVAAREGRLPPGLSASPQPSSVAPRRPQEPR

Row | Binder | binding result [1] | binding result [2] | binding result [3] | binding result [4]
1 | B1 | binds | binds | – | –
2 | B2 | – | no binding | no binding | no binding
3 | B3 | – | binds | – | –
